Measurements from the supplement of paper PMC12783771.
± gives the standard deviation of the averaged measurements.

B1: library; numbered along this chain (parent)
chain: MNIQIGELAKRTACPVVTIRFYEQEGLLPPPGRSRGNFRLYGEEHVERLQFIRHCRSLDMPLSDVRTLLSYRKRPDQDCGEVNMLLDEHIRQVESRIGALLELKHHLVELREACSGARPAQSCGILQGLSDCVCDTRGTTAHPSD

Columns and labels:
[1] = variants of: B1; test: sfGFP reporter fluorescence (15 h) (µM FITC); higher = higher leak; settings: library round: Round 1; ligand: none
Method in brief: (§1)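 Readout was endpoint sfGFP fluorescence, converted to µM FITC through standard curves. Reactions were 1 μL of BL21 Star (DE3) PANOx-SP extract with pPbrR-sfGFP reporter, 30 μg/mL GamS and linear PbrR templates normalized to 5 nM, containing 1 µM lead chloride, 30 µM zinc acetate or no metal. Incubation lasted 15 hr at 30 °C, with up to three biological replicates.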

[2] = variants of: B1; test: sfGFP reporter fluorescence (15 h) (µM FITC); higher = stronger transcriptional activation; settings: library round: Round 1
Method in brief: as §1

[3] = variants of: B1; test: sfGFP reporter fluorescence (15 h) (µM FITC); higher = higher leak; settings: library round: Round 0; ligand: none
Experimental: (§2)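 Cell-free (BL21 Star DE3 extract, PANOx-SP) biosensing: 1 µL Echo-assembled reactions with linear PbrR variant templates (5 nM) and pPbrR-sfGFP reporter, with 1 µM Pb (lead chloride), 30 µM Zn (zinc acetate) or no ligand; endpoint sfGFP fluorescence after 15 h at 30 °C, calibrated as µM FITC. Round 0 library (alanine scan, site saturation, combinatorial) of PbrR from Cupriavidus metallidurans; 2 biological replicates.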

[4] = variants of: B1; test: sfGFP reporter fluorescence (15 h) (µM FITC); higher = stronger transcriptional activation; settings: library round: Round 0
Experimental: as §2

Variant	sfGFP reporter fluorescence [1]	sfGFP reporter fluorescence ([2]; ligand: 1 µM Pb)	sfGFP reporter fluorescence ([2]; ligand: 30 µM Zn)	sfGFP reporter fluorescence [3]	sfGFP reporter fluorescence ([4]; ligand: 1 µM Pb)	sfGFP reporter fluorescence ([4]; ligand: 30 µM Zn)
D135A P143M	0.0655 ± 0.002	0.07977 ± 0.00056	0.405 ± 0.014			
D135A P143Y	0.0639 ± 0.0033	0.0797 ± 0.0033	0.361 ± 0.028			
D135A P143T	0.063 ± 0.0013	0.07562 ± 0.00042	0.374 ± 0.028			
D135A P143A	0.0645 ± 0.0011	0.0761 ± 0.0051	0.423 ± 0.016			
D135A P143F	0.0621 ± 0.0018	0.0718 ± 0.0013	0.299 ± 0.028			
D135A P143W	0.0683 ± 0.0014	0.0809 ± 0.0017	0.372 ± 0.0075			
E94Y P143C	0.0629 ± 0.0031	0.0621 ± 0.0044	0.0906 ± 0.0035			
D131L D135S	0.0691 ± 0.0011	0.0943 ± 0.002	0.588 ± 0.05			
D131L D135A	0.0688 ± 0.0015	0.0969 ± 0.027	0.476 ± 0.055			
I3C				0.0586	0.0737 ± 0.0052	0.774 ± 0.011
I3A				0.0544 ± 0.0049	0.0594 ± 0.001	0.339 ± 0.0078
I3D				0.06139 ± 0.00026	0.06011 ± 0.00052	0.08118 ± 0.00078
Q127S	0.0614 ± 0.00076	0.0649 ± 0.0047	0.118 ± 0.0086			
D131C P143A	0.0583 ± 0.0013	0.0696 ± 0.0017	0.141 ± 0.011			
D131C P143R	0.0674 ± 0.0018	0.0812 ± 0.0024	0.196 ± 0.0083			
V108L R111L	0.0611 ± 0.00085	0.0617 ± 0.0045	0.114 ± 0.0047			
L107N G128M	0.0744 ± 0.0042	0.225 ± 0.02	0.917 ± 0.088			
M84A I97G	0.05986 ± 0.00042	0.0617 ± 0.0011	0.218 ± 0.017			
V108L C114L	0.05962 ± 0.00056	0.0571 ± 0.003	0.0589 ± 0.0018			
D131T V133P	0.0641 ± 0.0013	0.0767 ± 0.0042	0.395 ± 0.036			
L107C E109Q G128I	0.54 ± 0.0092	1.09 ± 0.29	2.1 ± 0.28			
M1A				0.0618 ± 0.0029	0.0715 ± 0.0047	0.124 ± 0.0015

Variant	sfGFP reporter fluorescence [1]	sfGFP reporter fluorescence ([2]; ligand: 1 µM Pb)	sfGFP reporter fluorescence ([2]; ligand: 30 µM Zn)	sfGFP reporter fluorescence [3]	sfGFP reporter fluorescence ([4]; ligand: 1 µM Pb)	sfGFP reporter fluorescence ([4]; ligand: 30 µM Zn)
E109A R111L	0.06463 ± 0.00021	0.0688 ± 0.0022	0.1654 ± 0.00092			
D131A D135A P143A	0.0687 ± 0.0035	0.0917 ± 0.0098	0.487 ± 0.043			
E94D K104V	0.0655 ± 0.0018	0.101 ± 0.047	0.352 ± 0.039			
I97S G128I	0.0694 ± 0.0013	0.136 ± 0.023	0.89 ± 0.023			
I125L D131C	0.06 ± 0.0018	0.0617 ± 0.0015	0.0593 ± 0.0014			
D131H D135K	0.0669 ± 0.0015	0.0876 ± 0.0064	0.579 ± 0.071			
D131H D135P	0.0673 ± 0.0015	0.0988 ± 0.017	0.455 ± 0.04			
D131H D135A	0.065 ± 0.00092	0.0777 ± 0.0089	0.402 ± 0.014			
N83T V108L D131C	0.06218 ± 0.00042	0.0745 ± 0.0076	0.0858 ± 0.0057			
S115G D131C	0.0572 ± 0.0013	0.0619 ± 0.0016	0.0992 ± 0.0037			
V108E E109H	0.0605 ± 0.0011	0.0687 ± 0.003	0.224 ± 0.01			
N83T L110W	0.0601 ± 0.0015	0.0593 ± 0.0024	0.0597 ± 0.00097			
D131Y D135A	0.0654 ± 0.0021	0.1 ± 0.0045	1.61 ± 0.27			
D131Y D135P	0.0677 ± 0.0011	0.0826 ± 0.0037	0.272 ± 0.021			
L107C G124A G128M	0.371 ± 0.0094	1.13 ± 0.051	2.08 ± 0.19			
L100V G128I	0.0908 ± 0.0036	0.322 ± 0.035	1.24 ± 0.03			
N83T V108N	0.06328 ± 0.00021	0.0698 ± 0.0061	0.132 ± 0.0091			
G128L C134E	0.0749 ± 0.0015	0.135 ± 0.0039	1.36 ± 0.11			
L85I P143M	0.058 ± 0.0019	0.0691 ± 0.0018	0.401 ± 0.029			
E109I R111L	0.0627 ± 0.0016	0.0717 ± 0.003	0.217 ± 0.0064			
I90L D131C	0.0627 ± 0.00064	0.0647 ± 0.0038	0.122 ± 0.0066			
K104V L107G G128M	0.0645 ± 0.0022	0.0955 ± 0.013	0.29 ± 0.028			

Variant	sfGFP reporter fluorescence [1]	sfGFP reporter fluorescence ([2]; ligand: 1 µM Pb)	sfGFP reporter fluorescence ([2]; ligand: 30 µM Zn)	sfGFP reporter fluorescence [3]	sfGFP reporter fluorescence ([4]; ligand: 1 µM Pb)	sfGFP reporter fluorescence ([4]; ligand: 30 µM Zn)
N83W P143A	0.0616 ± 0.0013	0.0688 ± 0.0011	0.0621 ± 0.0015			
N83T L85A	0.06145 ± 0.00056	0.0596 ± 0.0031	0.0602 ± 0.00076			
N83T L85M	0.0622 ± 0.0036	0.0669 ± 0.0024	0.105 ± 0.003			
N83T L85R	0.061 ± 0.0026	0.0607 ± 0.0035	0.0601 ± 0.0029			
N83Y K104V	0.0651 ± 0.0031	0.119 ± 0.024	0.0894 ± 0.0065			
H105A I125A	0.0647 ± 0.0012	0.0639 ± 0.0042	0.0656 ± 0.0013			
L107C R111L G128M	0.333 ± 0.022	1.15 ± 0.33	2.19 ± 0.32			
D131A P143L	0.07208 ± 0.00056	0.0969 ± 0.0024	0.559 ± 0.0079			
K104V R111D	0.0612 ± 0.0019	0.0619 ± 0.0015	0.0723 ± 0.0033			
K104V R111L	0.0656 ± 0.0016	0.0694 ± 0.0047	0.0976 ± 0.0039			
K104V R111A	0.0644 ± 0.0027	0.096 ± 0.0033	0.356 ± 0.013			
D131A C134V	0.0781 ± 0.0011	0.12 ± 0.0056	1.24 ± 0.15			
D131H P143Y	0.064 ± 0.0022	0.0797 ± 0.012	0.383 ± 0.0077			
N83T V108L D131C P143T	0.06365 ± 0.00056	0.0753 ± 0.002	0.0975 ± 0.0026			
G128L D135A	0.075 ± 0.0011	0.155 ± 0.011	0.981 ± 0.14			
H142C P143A	0.0676 ± 0.0022	0.0772 ± 0.0027	0.384 ± 0.03			
L107C E109H	0.16 ± 0.0068	0.673 ± 0.092	1.68 ± 0.14			
R96S	0.0636 ± 0.0021	0.0924 ± 0.0049	0.328 ± 0.015			
R96Q	0.0632 ± 0.0037	0.0982 ± 0.0089	0.455 ± 0.0056			
R96G	0.0668 ± 0.0022	0.076 ± 0.004	0.195 ± 0.012			
E94C K104V	0.0704 ± 0.0013	0.072 ± 0.0039	0.184 ± 0.002			
D87E D131C	0.0622 ± 0.0025	0.0742 ± 0.0072	0.134 ± 0.013			

Variant	sfGFP reporter fluorescence [1]	sfGFP reporter fluorescence ([2]; ligand: 1 µM Pb)	sfGFP reporter fluorescence ([2]; ligand: 30 µM Zn)	sfGFP reporter fluorescence [3]	sfGFP reporter fluorescence ([4]; ligand: 1 µM Pb)	sfGFP reporter fluorescence ([4]; ligand: 30 µM Zn)
L110I D135A	0.0608 ± 0.00097	0.0588 ± 0.0053	1.94 ± 0.1			
R111V P143T	0.0627 ± 0.002	0.0715 ± 0.0029	0.25 ± 0.011			
L129M P143T	0.0636 ± 0.0011	0.0636 ± 0.0025	0.07306 ± 0.00056			
N83T L107E	0.0668 ± 0.00076	0.0635 ± 0.0022	0.0662 ± 0.0024			
N83T L107C	0.1001 ± 0.00064	0.518 ± 0.13	1.53 ± 0.15			
N83T L107F	0.06096 ± 0.00056	0.059 ± 0.002	0.0604 ± 0.0011			
N83T L107Y	0.0672 ± 0.0015	0.0739 ± 0.0066	0.0947 ± 0.0046			
D131S D135A	0.0649 ± 0.0016	0.0893 ± 0.0049	0.459 ± 0.015			
D131S D135P	0.0663 ± 0.0043	0.105 ± 0.0076	0.547 ± 0.082			
G128I D135A	0.0699 ± 0.0036	0.12 ± 0.0083	0.64 ± 0.032			
G128I D135P	0.074 ± 0.0013	0.172 ± 0.013	0.904 ± 0.084			
R111I G128I	0.0666 ± 0.0015	0.127 ± 0.0043	0.695 ± 0.036			
E109D D135R	0.06377 ± 0.00037	0.0733 ± 0.0076	0.422 ± 0.031			
D87S	0.0624 ± 0.0015	0.0699 ± 0.0015	0.162 ± 0.017			
G128S D135A	0.0652 ± 0.0016	0.0925 ± 0.0068	0.604 ± 0.015			
K104V G128M D135A	0.103 ± 0.0031	0.291 ± 0.048	1.8 ± 0.11			
R96A K104V G128M	0.0678 ± 0.0023	0.0902 ± 0.0061	0.257 ± 0.008			
D131F D135A	0.0667 ± 0.0016	0.071 ± 0.0022	0.345 ± 0.018			
M84Q R111L	0.0624 ± 0.0054	0.0651 ± 0.0026	0.122 ± 0.0058			
V108I D131C	0.0613 ± 0.0026	0.0713 ± 0.0046	0.134 ± 0.0021			
E94F K104V G128H	0.0634 ± 0.002	0.0647 ± 0.0031	0.0833 ± 0.0084			
D131A D135P P143W	0.0718 ± 0.0029	0.122 ± 0.0042	0.497 ± 0.081			
